From US20210324111A1 (UCB, published 2021) come the findings set out here.

The test deals with T1, Human serum albumin (human, UniProt P02768 25-609).
T1 construct: Bought purified protein, injected as the analyte in SPR; also called HSA; Human albumin, ChromPure (Jackson ImmunoResearch)
Briefly: SPR (Biacore), antibody captured on the chip, HSA as analyte, 25 C, 1:1 model.

Positions count from the first letter of the chain named.

B1: 645gL4gH5 Fab-A26 BYbe wt (bispecific antibody, part only; not given: A26 dsscFv, linker, CH1, CL, V domains shown, not shown: another chain or arm of the molecule; a dimerising Fc or GST; small tags and cut ends)
VH: EVQLLESGGGLVQPGGSLRLSCAVSGIDLSNYAINWVRQAPGKQLEWIGIIWASGTTFYATWAKGRFTISRDNSKNTVYLQMNSLRAEDTAVYYCARTVPGYSTAPYFDLWGQGTLVTVSS
VL: DIQMTQSPSSVSASVGDRVTITCQSSPSVWSNFLSWYQQKPGKAPKLLIYEASKLTSGVPSRFSGSGSGTDFTLTISSLQPEDFATYYCGGGYSSISDTTFGGGTKVEIK
One may read the Kd as the equilibrium constant for the complex coming apart. Low values mean a tighter complex, high ones a looser complex. As a reminder, the koff is the rate constant with which the complex falls apart. A low value points to slow dissociation. The kon is the rate constant with which the complex forms. Turning to B1, the dissociation constant Kd is 1.61 nM, the off-rate (koff) worked out at 0.00025 s⁻¹ and the on-rate constant (kon) was found to be 156000 M⁻¹ s⁻¹.

B2: 645CDR-2109FW Fab nh (Fab, V domains shown)
VH: B1 VH with L5V, Q13K, V24A, Q44G, R71V, N73K, S74A, T77S, V78A, A96T
VL: B1 VL with V11L, A44V, S66T, F72Y, F84V, Y88F, G103Q, V107L
notes: also called 2109FW/645CDR Fab nh; #3
In the case of B2, the affinity, expressed as Kd, was 1.52 nM; the dissociation rate constant (koff) turned out to be 0.000227 s⁻¹; the on-rate (kon) is 150000 M⁻¹ s⁻¹.

B3: 645CDR-497FW Fab-A26 ds HL BYbe (bispecific antibody, part only; not given: A26 dsscFv, linker, CH1, CL, V domains shown, not shown: another chain or arm of the molecule; a dimerising Fc or GST; small tags and cut ends)
VH: EVQLVESGGGLVKPGGSLRLSCAASGIDLSNYAINWVRQAPGKGLEWVGIIWASGTTFYATWAKGRFTISRDDSKNTLYLQMNSLKTEDTAVYYCTTTVPGYSTAPYFDLWGQGTLVTVSS
VL: B1 VL with D1A, M4L, V11L, G103Q
Take B3: the equilibrium dissociation constant (Kd) came to 1.23 nM, the koff came out at 0.000186 s⁻¹ and the kon was determined as 151000 M⁻¹ s⁻¹.

B4: 645CDR-2109FW Fab-A26 ds HL BYbe (bispecific antibody, part only; not given: A26 dsscFv, linker, CH1, CL, V domains shown, not shown: another chain or arm of the molecule; a dimerising Fc or GST; small tags and cut ends)
VH: B3 VH with V48I, R71V, D73K, S74A, T77S, L78A, K86R, T87A, T97R
VL: B1 VL with V11L, A44V, S66T, F72Y, F84V, Y88F, G103Q, V107L
The molecule B4 returned a Kd of 4.74 nM, a koff of 0.000651 s⁻¹ and a kon of 137000 M⁻¹ s⁻¹.

B5: 645CDR-497FW Fab nh (Fab, V domains shown)
VH: B3 VH
VL: B1 VL with D1A, M4L, V11L, G103Q
notes: also called 497FW/645CDR Fab nh; 645CDR -497FW/645CDR Fab nh
In turn, B5 registered a Kd of 4.63 nM, a koff of 0.000601 s⁻¹ and a kon of 130000 M⁻¹ s⁻¹.
